Assay results from patent US20240360229A1 (Genentech, published 2024).

B1: 1889/1889:40G5c anti-CCR8 TDB 2+1 A/AB (A: 1889 P, B: 40G5c) (bispecific antibody, human IgG1, kappa, L234A L235A)
heavy 1: EVQLLESGGGLVQPGGSLRLSCAASGIDLSTYAMGWVREAPGKGLEWVGLIHRSGRTYYATWAKGRFTISKDSSKNTLYLQMNSLRAEDTAVYYCTRSYPDYSATASIWGQGTTVTVSSASTKGPSVFPLAPSSKSTSGGTAALGCLVKDYFPEPVTVSWNSGALTSGVHTFPAVLQSSGLYSLKSVVTVPSSSLGTQTYICNVNHKPSNTKVDKKVEPKSCDKTHTCPPCPAPEAAGGPSVFLFPPKPKDTLMISRTPEVTCVVVDVSHEDPEVKFNWYVDGVEVHNAKTKPREEQYNSTYRVVSVLTVLHQDWLNGKEYKCKVSNKALGAPIEKTISKAKGQPREPQVYTLPPSREEMTKNQVSLWCLVKGFYPSDIAVEWESNGQPENNYKTTPPVLDSDGSFFLYSKLTVDKSRWQQGNVFSCSVMHEALHNHYTQKSLSLSPGK
light 1: DIQVTQSPSSLPASVGDRVTITCQASENIANALAWYQKKPGKPPKFLIYGASNLASGVPSRFSGSGSGTDFTFTISSLQPEDIATYYCQQAYYGNSFVEGTFGGGTKVEIKRTVAAPSVFIFPPSDEQLKSGTASVECLLNNFYPREAKVQWKVDNALQSGNSQESVTEQDSKDSTYSLSSTLTLSKADYEKHKVYACEVTHQGLSSPVTKSFNRGEC
heavy 2: EVQLLESGGGLVQPGGSLRLSCAASGIDLSTYAMGWVREAPGKGLEWVGLIHRSGRTYYATWAKGRFTISKDSSKNTLYLQMNSLRAEDTAVYYCTRSYPDYSATASIWGQGTTVTVSSASTKGPSVFPLAPSSKSTSGGTAALGCLVKDYFPEPVTVSWNSGALTSGVHTFPAVLQSSGLYSLKSVVTVPSSSLGTQTYICNVNHKPSNTKVDKKVEPKSCDKTHTEVQLVQSGAEVKKPGASVKVSCKASGYTFTNYYIHWVRKAPGQGLEWIGWIYPGDGNTKYNEKFKGRATLTADTSTSTAYLELSSLRSEDTAVYYCARDSYSNYYFDYWGQGTLVTVSSASTKGPSVFPLAPSSKSTSGGTAALGCLVKDYFPEPVTVSWNSGALTSGVHTFPAVLQSSGLYSLESVVTVPSSSLGTQTYICNVNHKPSNTKVDKKVEPKSCDKTHTCPPCPAPEAAGGPSVFLFPPKPKDTLMISRTPEVTCVVVDVSHEDPEVKFNWYVDGVEVHNAKTKPREEQYNSTYRVVSVLTVLHQDWLNGKEYKCKVSNKALGAPIEKTISKAKGQPREPQVYTLPPSREEMTKNQVSLSCAVKGFYPSDIAVEWESNGQPENNYKTTPPVLDSDGSFFLVSKLTVDKSRWQQGNVFSCSVMHEALHNHYTQKSLSLSPGK
light 2: not shown
notes: 2+1 T cell-dependent bispecific: human IgG1 Fc with LALA-PG, knob-into-hole and charge mutations
B2: anti-CCR8 1889 WT antibody (parent) (antibody, V domains shown)
VH: EVQLLESGGGLVQPGGSLRLSCAASGIDLSTYAMGWVREAPGKGLEWVGLIHRSGRTYYATWAKGRFTISKDSSKNTLYLQMNSLRAEDTAVYYCTRSYPDYSATASIWGQGTTVTVSS
VL: DIQVTQSPSSLSASVGDRVTITCQASENIANALAWYQKKPGKPPKFLIYGASNLASGVPSRFSGSGSGTDFTFTISSLQPEDIATYYCQQAYYGNSFVEGTFGGGTKVEIK
notes: The antibody has human IgG constant regions (detected with anti-human IgG)
B3: anti-CCR8 1889 S12P.I29V (PV) (antibody, V domains shown)
VH: EVQLLESGGGLVQPGGSLRLSCAASGIDLSTYAMGWVREAPGKGLEWVGLIHRSGRTYYATWAKGRFTISKDSSKNTLYLQMNSLRAEDTAVYYCTRSYPDYSATASIWGQGTTVTVSS
VL: DIQVTQSPSSLPASVGDRVTITCQASENVANALAWYQKKPGKPPKFLIYGASNLASGVPSRFSGSGSGTDFTFTISSLQPEDIATYYCQQAYYGNSFVEGTFGGGTKVEIK
B4: anti-CCR8 1889 S12P.I29V.E95dS (PVS) (antibody, V domains shown)
VH: EVQLLESGGGLVQPGGSLRLSCAASGIDLSTYAMGWVREAPGKGLEWVGLIHRSGRTYYATWAKGRFTISKDSSKNTLYLQMNSLRAEDTAVYYCTRSYPDYSATASIWGQGTTVTVSS
VL: DIQVTQSPSSLPASVGDRVTITCQASENVANALAWYQKKPGKPPKFLIYGASNLASGVPSRFSGSGSGTDFTFTISSLQPEDIATYYCQQAYYGNSFVSGTFGGGTKVEIK
B5: anti-CCR8 1889 S12P.I29V.E95dS.T57D.Y58A (PVSDA) (antibody, V domains shown)
VH: EVQLLESGGGLVQPGGSLRLSCAASGIDLSTYAMGWVREAPGKGLEWVGLIHRSGRDAYATWAKGRFTISKDSSKNTLYLQMNSLRAEDTAVYYCTRSYPDYSATASIWGQGTTVTVSS
VL: DIQVTQSPSSLPASVGDRVTITCQASENVANALAWYQKKPGKPPKFLIYGASNLASGVPSRFSGSGSGTDFTFTISSLQPEDIATYYCQQAYYGNSFVSGTFGGGTKVEIK
notes: It is put together from the printed names of the heavy and light chain variants; also called I29V.E95dS.Y57D.Y58A
B6: anti-CCR8 1889 S12P.I29V.E95dS.Y58A (PVSA) (antibody, V domains shown)
VH: EVQLLESGGGLVQPGGSLRLSCAASGIDLSTYAMGWVREAPGKGLEWVGLIHRSGRTAYATWAKGRFTISKDSSKNTLYLQMNSLRAEDTAVYYCTRSYPDYSATASIWGQGTTVTVSS
VL: DIQVTQSPSSLPASVGDRVTITCQASENVANALAWYQKKPGKPPKFLIYGASNLASGVPSRFSGSGSGTDFTFTISSLQPEDIATYYCQQAYYGNSFVSGTFGGGTKVEIK
notes: It is put together from the printed names of the heavy and light chain variants
B7: anti-CCR8 1889 S12P.I29V.Y58A (PVA) (antibody, V domains shown)
VH: EVQLLESGGGLVQPGGSLRLSCAASGIDLSTYAMGWVREAPGKGLEWVGLIHRSGRTAYATWAKGRFTISKDSSKNTLYLQMNSLRAEDTAVYYCTRSYPDYSATASIWGQGTTVTVSS
VL: DIQVTQSPSSLPASVGDRVTITCQASENVANALAWYQKKPGKPPKFLIYGASNLASGVPSRFSGSGSGTDFTFTISSLQPEDIATYYCQQAYYGNSFVEGTFGGGTKVEIK
notes: It is put together from the printed names of the heavy chain variant (Y58A) and the light chain variant (S12P.I29V)

How the values were obtained:
human CCR8 [1] = molecular target: T1, human CCR8 (human, UniProt P51685 1-355); assay: LigandTracer real-time fluorescence, Alexa Fluor 488-labelled TDB on CHO cells expressing human CCR8; 1-to-2 fit, bivalent event
T1 construct: also CHO-hCCR8-Ga15 / CHO/hCCR8.Gna15); also called hCCR8; huCCR8
Procedure: (§1) The following day, media was aspirated and fresh media was added. The cells were incubated at room temperature for 20 minutes prior to starting the assay. The plate was loaded onto a LIGAND TRACER® Green instrument (Ridgeview Instruments AB) for real-time fluorescence measurement. […] Antibody (Ab) dissociation was recorded by aspirating the media and adding fresh media with 10 nM of unlabeled Ab to prevent rebinding of labeled Ab. The Ab dissociation was measured overnight to obtain accurate off-rates. Untransfected CHO cells were used to subtract the non-specific binding. Specific binding traces were analyzed using TraceDrawer 1.7 (Ridgeview Instruments) software and fit with a 1-to-2 with bulk binding model to determine association (kₐ) and dissociation (kd) rate constants. The equilibrium dissociation constants (KD) for each binding event were calculated as the ratio of the dissociation and association rates, kd/kₐ.
(§2) 1 million CHO cells stably expressing either human or cynomolgus CCR8 (about 60,000 and about 30,000 receptors/cell, respectively) were seeded at a concentration of 1 million cells/mL onto a Multidish 2×2 Petri Dish (Ridgeview Instruments AB, Sweden) to form a circular drop of about 3 cm diameter in chambers A and C of the dish. […] The plate was loaded onto a […]® Green (Ridgeview Instruments AB) for real-time fluorescence measurement.

human CCR8 [2] = molecular target: T1, human CCR8; assay: cellular binding with LigandTracer on CHO cells expressing human CCR8, three experiments (same values as the bivalent row of Table 8)
Procedure: (§3) Untransfected CHO cells were used to subtract the non-specific binding. Specific binding traces were analyzed using TraceDrawer 1.7 (Ridgeview Instruments) software and fit with a 1-to-2 with bulk binding model to determine association (kₐ) and dissociation (kd) rate constants. The equilibrium dissociation constants (KD) for each binding event were calculated as the ratio of the dissociation and association rates, kd/kₐ.
(§4) 1 million CHO cells stably expressing either human or cynomolgus CCR8 (about 60,000 and about 30,000 receptors/cell, respectively) were seeded at a concentration of 1 million cells/mL onto a Multidish 2×2 Petri Dish (Ridgeview Instruments AB, Sweden) to form a circular drop of about 3 cm diameter in chambers A and C of the dish. Untransfected CHO cells were seeded in opposing chambers (B and D) in the same manner. Cells were left undisturbed to adhere for 4 hours. […] The plate was loaded onto a […]® Green (Ridgeview Instruments AB) for real-time fluorescence measurement. […] The Ab dissociation was measured overnight to obtain accurate off-rates. […] Specific binding traces were analyzed using TraceDrawer 1.7 (Ridgeview Instruments) software to determine the association-(kₐ) and dissociation-(kd) rate constants. The equilibrium dissociation constants (KD) for each binding event were calculated as the ratio of the dissociation and association rates, kd/kₐ. […]

cyno CCR8 [3] = molecular target: T2, cyno CCR8 (cynomolgus monkey, UniProt O97665 1-356 (rhesus entry)); assay: cellular binding with LigandTracer on CHO cells expressing cyno CCR8, three experiments (same values as the bivalent row of Table 8)
T2 construct: also called cynomolgus CCR8; cyCCR8
Procedure: as §3, §4

[4] = molecular target: T3, Human CD3-epsilon/delta dimer (linked by murine Fc) (human; mouse, UniProt P07766 23-126; P04234 22-105); assay: SPR (Biacore T200, 37 C), TDB captured by anti-human Fc on CM5, huCD3ed-mIgG2a.Fc injected; 1:1 Langmuir, n=3
T3 construct: also called huCD3ed-mIgG2a.Fc; recombinant human CD3epsilon/delta; not shown: mouse IgG2a Fc

human CCR8 [5] = molecular target: T1, human CCR8; assay: LigandTracer real-time fluorescence, Alexa Fluor 488-labelled TDB on CHO cells expressing human CCR8; 1-to-2 fit, monovalent event
Procedure: as §1, §2

cyno CCR8 [6] = molecular target: T2, cyno CCR8; assay: LigandTracer real-time fluorescence, Alexa Fluor 488-labelled TDB on CHO cells expressing cyno CCR8; 1-to-2 fit, monovalent event
Procedure: as §1, §2

cyno CCR8 [7] = molecular target: T2, cyno CCR8; assay: LigandTracer real-time fluorescence, Alexa Fluor 488-labelled TDB on CHO cells expressing cyno CCR8; 1-to-2 fit, bivalent event
Procedure: as §1, §2

cyno CCR8 [8] = molecular target: T2, cyno CCR8; assay: flow cytometry titration on CHO cells stably expressing cyno CCR8 (14 h, room temperature)
Procedure: (§5) In particular, human CCR8 CHO and cyno (cynomolgus monkey) CCR8 CHO stable cell lines were stained with a dilution series of anti-CCR8 antibodies at room temperature for 14 hours, then washed twice with FACS buffer (PBS with 0.5% BSA and 0.2 mM EDTA). Samples were washed twice with FACS buffer followed by staining with goat Fab anti-hu IgG H+L (1:300, Jackson Immuno) at 4° C. for 15 minutes.

human CCR8 [9] = molecular target: T1, human CCR8; assay: flow cytometry titration on CHO cells stably expressing human CCR8 (14 h, room temperature)
Procedure: as §5

T2 sequence (O97665 other isoform, or with tags, fused parts or gaps): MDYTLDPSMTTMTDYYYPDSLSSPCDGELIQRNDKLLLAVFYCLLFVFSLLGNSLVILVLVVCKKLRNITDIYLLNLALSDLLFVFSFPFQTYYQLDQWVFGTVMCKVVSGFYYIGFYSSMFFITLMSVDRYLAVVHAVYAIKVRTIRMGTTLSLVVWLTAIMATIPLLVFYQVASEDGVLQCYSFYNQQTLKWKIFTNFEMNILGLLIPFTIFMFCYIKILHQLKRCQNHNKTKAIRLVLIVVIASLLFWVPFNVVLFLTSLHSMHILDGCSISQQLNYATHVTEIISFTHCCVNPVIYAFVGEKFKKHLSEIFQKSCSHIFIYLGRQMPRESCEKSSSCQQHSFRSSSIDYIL
T1 sequence (P51685 whole entry): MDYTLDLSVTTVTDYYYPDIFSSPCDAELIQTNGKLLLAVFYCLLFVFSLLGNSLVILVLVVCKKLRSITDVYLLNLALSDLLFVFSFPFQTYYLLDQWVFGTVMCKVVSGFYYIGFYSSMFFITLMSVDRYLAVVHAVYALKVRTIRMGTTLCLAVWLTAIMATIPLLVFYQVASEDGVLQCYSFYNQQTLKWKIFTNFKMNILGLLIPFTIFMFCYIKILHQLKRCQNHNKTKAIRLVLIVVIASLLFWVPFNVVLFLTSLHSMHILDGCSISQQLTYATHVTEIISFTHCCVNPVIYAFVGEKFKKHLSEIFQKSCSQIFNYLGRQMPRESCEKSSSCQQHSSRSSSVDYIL
T3 sequence (P07766 23-126, stated change not applied, chain 1 of 2): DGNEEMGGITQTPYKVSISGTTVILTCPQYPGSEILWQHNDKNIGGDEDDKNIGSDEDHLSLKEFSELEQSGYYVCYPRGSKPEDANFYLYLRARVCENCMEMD
T3 sequence (P04234 22-105, stated change not applied, chain 2 of 2): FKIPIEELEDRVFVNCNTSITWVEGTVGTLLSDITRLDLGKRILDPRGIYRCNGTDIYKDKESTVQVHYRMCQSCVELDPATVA

Binder	EC50 (cyno CCR8 [8]) [nM]	EC50 (human CCR8 [9]) [nM]	other results
B1			Kd (human CCR8 [1]): 0.00778 nM; Kd (human CCR8 [2]): 0.008 nM; Kd (cyno CCR8 [3]): 0.023 nM; Kd [4]: 1160 nM; Kd (human CCR8 [5]): 0.484 nM; Kd (cyno CCR8 [6]): 1.01 nM; Kd (cyno CCR8 [7]): 0.0228 nM
B2	11.5	17.1	
B3	7.67	1.65	
B4	3.13	0.66	
B5	2.24	0.94	
B6	3.39	1.19	
B7	6.14	1.03	
